Reference: patent publication US9850292B2, “Compositions which regulate the epithelial brush border Na+/H+ exchanger NHE3 and their methods of use in gastrointestinal disease” (THE JOHNS HOPKINS UNIVERSITY, priority 2012, dated 2017)
Where two headings read alike, the source gives them in different places. The star is where a group is joined. Biotin = O=C1N[C@H]2[C@H](CS[C@H]2CCCCC(=O)*)N1

What was measured:
[1] = target: T1, NHE3 (Mus musculus, UniProt G3X939); experiment: NHE3 activity in mouse jejunum in vitro, BCECF/microscopy; format: cell-based; details: FIG. 4B
T1 construct: from tissue; host or cells: mouse jejunum, exposed in vitro
T1 sequence (G3X939 27-829): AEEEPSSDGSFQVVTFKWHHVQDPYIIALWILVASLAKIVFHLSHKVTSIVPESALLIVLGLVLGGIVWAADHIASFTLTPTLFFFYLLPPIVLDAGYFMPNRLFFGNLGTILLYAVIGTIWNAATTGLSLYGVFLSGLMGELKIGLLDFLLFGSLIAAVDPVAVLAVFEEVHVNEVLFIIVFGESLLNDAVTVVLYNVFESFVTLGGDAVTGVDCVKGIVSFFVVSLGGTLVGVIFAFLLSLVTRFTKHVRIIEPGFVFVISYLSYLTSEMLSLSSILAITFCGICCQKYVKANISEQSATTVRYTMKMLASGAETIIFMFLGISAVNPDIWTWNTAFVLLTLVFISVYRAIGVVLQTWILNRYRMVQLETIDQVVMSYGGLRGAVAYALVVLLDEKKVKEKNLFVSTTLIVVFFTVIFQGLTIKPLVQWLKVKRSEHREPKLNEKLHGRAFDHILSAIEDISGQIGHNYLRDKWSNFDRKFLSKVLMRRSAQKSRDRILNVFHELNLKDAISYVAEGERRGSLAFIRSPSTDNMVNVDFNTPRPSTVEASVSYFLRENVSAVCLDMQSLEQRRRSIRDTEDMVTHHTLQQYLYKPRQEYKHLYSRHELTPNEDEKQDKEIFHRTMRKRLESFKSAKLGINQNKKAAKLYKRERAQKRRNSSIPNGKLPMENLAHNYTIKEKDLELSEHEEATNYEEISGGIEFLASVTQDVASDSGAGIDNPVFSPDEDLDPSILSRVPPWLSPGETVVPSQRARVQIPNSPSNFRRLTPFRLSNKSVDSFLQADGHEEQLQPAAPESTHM
Procedure: (§1) FIG. 4A is a bar graph depicting the results when Caco-2/HA-NHE3 cells were exposed to IRCX-CP (400 nM) for 15 minutes then basal, carbachol (cch) (10 μM) inhibited and EGF (200 ng/ml) stimulated NHE3 were determined (n=4). FIG. 4B is another bar graph depicting the effects when mouse jejunum was exposed in vitro to IRCX-CP (400 nM) and/or forskolin (10 μM) for 15 minutes with NHE3 activity determined by BCECF.
The fluorescent peptides described above were then loaded into PS120/NHERF2/NHE3, Caco2/NHE3 cells, and mouse small intestine. It was established that loading reaches a maximum in 15 minutes (37° C.) (FIG. 3) and is stable for at least 6 hours. To evaluate the effect of these peptides on NHE3 regulation, PS120 and Caco-2 cells were exposed to 400-1600 nM Bodipy 577/618-peptide and used BCECF/fluorometry to characterize the peptide's effects on basal NHE3 activity and after Ca^2+ elevation and EGF exposure. In studies in both cell types, all peptide concentrations studied stimulated basal NHE3 activity by about 40%, and reduced Ca^2+ inhibition of NHE3 by about 50% in PS 120 cells (data not shown) and entirely in Caco-2 cells (FIG. 4A).

[2] = system: murine jejunum exposed to cholera toxin; details: mouse, in vivo
[3] = target: T2, rabbit NHE3 (rNHE3) (Oryctolagus cuniculus, UniProt P26432); format: cell-based; set-up: amplified from pcDNA 3.1 containing the full-length NHE3V (pcDNA 3.1/NHE3V); expressed in transfected cells
T2 sequence (P26432 30-832): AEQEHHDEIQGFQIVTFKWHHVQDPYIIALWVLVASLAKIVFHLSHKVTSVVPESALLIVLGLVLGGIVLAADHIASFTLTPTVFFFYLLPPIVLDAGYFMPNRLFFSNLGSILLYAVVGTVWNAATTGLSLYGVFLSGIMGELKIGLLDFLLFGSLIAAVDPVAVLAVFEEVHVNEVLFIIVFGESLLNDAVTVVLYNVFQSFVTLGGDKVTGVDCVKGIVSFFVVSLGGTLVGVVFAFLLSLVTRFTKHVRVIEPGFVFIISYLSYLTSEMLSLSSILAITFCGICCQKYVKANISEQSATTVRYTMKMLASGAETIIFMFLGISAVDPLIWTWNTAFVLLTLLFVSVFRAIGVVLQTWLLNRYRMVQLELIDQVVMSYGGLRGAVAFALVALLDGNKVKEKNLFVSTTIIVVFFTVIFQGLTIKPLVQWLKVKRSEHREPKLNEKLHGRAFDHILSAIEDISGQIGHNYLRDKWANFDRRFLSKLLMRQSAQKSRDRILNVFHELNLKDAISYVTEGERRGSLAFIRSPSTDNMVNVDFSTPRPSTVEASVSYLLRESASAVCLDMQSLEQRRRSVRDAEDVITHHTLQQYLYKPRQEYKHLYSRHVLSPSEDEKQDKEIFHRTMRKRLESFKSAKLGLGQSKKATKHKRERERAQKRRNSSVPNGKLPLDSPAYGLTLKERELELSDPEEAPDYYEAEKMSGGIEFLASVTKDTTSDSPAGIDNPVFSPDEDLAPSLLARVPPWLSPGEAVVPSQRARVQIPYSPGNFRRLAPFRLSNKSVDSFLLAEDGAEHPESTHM

[4] = target: T2, rabbit NHE3 (rNHE3); experiment: BCECF/fluorometry Na+/H+ exchange activity in Caco-2 cells; format: cell-based; set-up: expressed in transfected cells; host or cells: Caco-2BBe cells, transient adenoviral infection (ADLOX.HTM shuttle vector, CMV promoter)
Procedure: as §1
Cell Lines. PS120 fibroblasts lack all endogenous plasma membrane NHEs, NHERF1 (minimal expression), NHERF2, NHERF3 and NHERF4. These cells, when stably expressing rabbit NHE3 with a C-terminal VSV-G protein epitope tag and NHERF2, are called PS120/NHE3/NHERF2 cells (or PS120/E3V/NHERF2 cells), as described (stable cell lines made using pcDNA 3.1, G418 and hygromycin, Invitrogen). Caco-2BBe cells express all four members of the NHERF gene family and small amounts NHE3 (Caco-2BBe/3HA-NHE3 cells). Triple HA-tagged rabbit NHE3 was expressed by adenovirus into Caco-2BBe cells for transport and biochemical analysis.
Adenoviral Constructs/Infection. Caco-2BBe cells which endogenously express the four members of the NHERF gene family and small amounts of NHE3 were transiently infected with triple HA-tagged rNHE3 previously engineered into replication-deficient Adeno-viral shuttle vector ADLOX.HTM under a cytomegalovirus promoter. Caco-2BBe cells were first grown on Transwell filters (Corning) until 12 days post-confluence in “Caco-2 medium.” Cells were then treated with serum-free media containing 6 mM EGTA for 2 hours at 37° C. to allow the tight junctions to open, further exposing apical and basolateral surfaces to the virus. […]
Measurement of Na^+/H^+ Exchange. Cellular Na^+/H^+ exchange activity in PS 120 cells grown to about 70% confluency on glass coverslips was determined fluorometrically using the intracellular pH-sensitive dye 2′,7′-bis(carboxyethyl)5-6-carboxyfluoresceinacetoxymethyl ester (BCECF-AM, 5μM; Molecular Probes, Eugene, Oreg.). […] At the end of each experiment, the fluorescence ratio was calibrated to pHi using the high potassium/nigericin method. Na^+/H^+ exchange activity data were calculated as the product of Na^+ dependent changes in pHi times the buffering capacity at each pHi, and individual points shown in the figures are ratios of Na^+/H^+ exchange calculated at multiple pHi values using at least three coverslips per condition in a single experiment. Kinetics of Na^+/H^+ exchange were analyzed by Hill plot using Origin (Microcal Software) to estimate Vmax and K′(H^+)i in individual experiments. Means+/−S.E.M. were determined from at least three separate experiments. […]

Substance | stimulation of basal NHE3 activity ([1]; 400 nM, 15 minutes) [%] | prevention of NHE3 inhibition by forskolin ([1]; forskolin 10 μM, 400 nM peptide) | cholera toxin fluid accumulation [2] | peptide concentration at which effects were maximum [3] [nM] | reduction of Ca2+ inhibition of NHE3 [3] | stimulation of basal NHE3 activity [3] | stimulation of basal NHE3 activity ([4]; 400-1600 nM peptide, all concentrations studied) | reduction of Ca2+ inhibition of NHE3 ([4]; after Ca2+ elevation (carbachol 10 μM), FIG. 4A) | peptide concentration at which effects were maximum ([4]; effect at saturation) [nM] | effect on NHE3 activity [3] | effect on NHE3 activity [4]
Bodipy 577/618-peptide: 38 aa rabbit NHE3 aa 568-605 peptide (SEQ ID NO: 1), biotin on N-terminus, C-terminus linked to Bodipy 577/618 maleimide (Biotin-NVDFSTPRPSTVEASVSYLLRESASAVCLDMQSLEQRR-{Bodipy 577/618 maleimide}; listed as Oryctolagus cuniculus) | 60 | totally prevented | prevented cholera toxin fluid accumulation | 400 | about 50% | about 40% | about 40% | entirely | 400 |  | 
NVDFSTPRPSTVEASVSYLLRESASAVCLDMQSLEQRR (listed as Oryctolagus cuniculus) [peptide without Bodipy] |  |  |  |  |  |  |  |  |  | did not alter NHE3 activity | did not alter NHE3 activity
